For three molecules, binding result and Kd results are on record in PMC10115415, “RNA binding induces an allosteric switch in Cyp33 to repress MLL1-mediated transcription”.

Common to all, as to settings: protein: recombinant; tags: AGH N-terminal after intein cleavage
For data set [1], the target named is T1, Cyp33 RRM (human, UniProt Q9UNP9 1-114). In words: NMR titration; weak, fast exchange; NMR titrations: 20 mM KHPO4 pH 7, 40 mM KCl, 1 mM DTT, 289.15 K as printed (table S2 says 298.15 K for Kd); structures of complexes: 40 mM KCl, 20 mM KH2PO4 pH.
T1 sequence (Q9UNP9 1-114): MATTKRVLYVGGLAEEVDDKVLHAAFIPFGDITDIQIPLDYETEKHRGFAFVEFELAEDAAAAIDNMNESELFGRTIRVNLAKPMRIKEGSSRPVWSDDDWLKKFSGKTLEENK
The target of data set [2] is Cyp33 RRMΔα (human, UniProt Q9UNP9 1-90). In words: NMR structure and titration; single register, larger shifts than with a3; NMR titrations: 20 mM KHPO4 pH 7, 40 mM KCl, 1 mM DTT, 289.15 K as printed (table S2 says 298.15 K for Kd); structures of complexes: 40 mM KCl, 20 mM KH2PO4 pH.
Chain of Cyp33 RRMΔα (Q9UNP9 1-90, stated change not applied): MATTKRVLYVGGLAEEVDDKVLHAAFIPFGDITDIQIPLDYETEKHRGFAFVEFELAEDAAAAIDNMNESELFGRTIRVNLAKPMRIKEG
For data set [3], the target named is T1, Cyp33 RRM. In words: NMR structure and titration; low affinity, multiple registers; NMR titrations: 20 mM KHPO4 pH 7, 40 mM KCl, 1 mM DTT, 289.15 K as printed (table S2 says 298.15 K for Kd); structures of complexes: 40 mM KCl, 20 mM KH2PO4 pH.
For data set [4], the target named is T1, Cyp33 RRM. In words: NMR titration; NMR titrations: 20 mM KHPO4 pH 7, 40 mM KCl, 1 mM DTT, 289.15 K as printed (table S2 says 298.15 K for Kd); structures of complexes: 40 mM KCl, 20 mM KH2PO4 pH.
Data set [5] deals with Cyp33-K (RRM) (human, UniProt Q9UNP9 1-114, K83A). The data set is described as above.
Chain of Cyp33-K (RRM) (Q9UNP9 1-114 K83A): as the sequence (Q9UNP9 1-114) above, with K83A counted along it
Data set [6] concerns the target Cyp33-RK (RRM) (human, UniProt Q9UNP9 1-114, R86A;K88A). The description is as above.

Chain of Cyp33-RK (RRM) (Q9UNP9 1-114 R86A/K88A): as the sequence (Q9UNP9 1-114) above, with R86A, K88A counted along it

As to UAAUGUCG (ssRNA) [UAAUGUCG RNA], the binding result in data set [1] and in data set [2] was “binds” in each case.
As for AAUAAA (ssRNA) [AAUAAA RNA (poly-A signal)], in data set [3], the binding result was “binds”.
Take UAAUGU (ssRNA) [UAAUGU RNA]: the values for the Kd in data set [4], in data set [5] and in data set [6] were ~300 µM, ~1800 µM and ~2000 µM, respectively.
